In patent US20200109211A1 (ELSALYS BIOTECH, published 2020):

T1: recombinant human CD160 protein, soluble form, with a C-terminal tag of 6 histidine residues (R&D SYSTEMS) (human, UniProt O95971 27-159, limits assumed, biotinylated with EZ-Link sulfo-NHS-LC-biotin for BLI and ELISA; not biotinylated when immobilised on the CM5 chip for SPR)
T1 construct: domain: soluble form; Bought protein; also called hCD160-his; biotinylated CD160
T1 sequence: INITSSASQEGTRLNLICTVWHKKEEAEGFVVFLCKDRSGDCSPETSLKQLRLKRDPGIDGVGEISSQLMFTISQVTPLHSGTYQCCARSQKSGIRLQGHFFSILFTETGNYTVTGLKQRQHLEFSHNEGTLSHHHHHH

T2: human CD160 (CD160 GPI isoform) on cells (human, UniProt O95971 25-159, GPI anchor)
T2 sequence (looked up): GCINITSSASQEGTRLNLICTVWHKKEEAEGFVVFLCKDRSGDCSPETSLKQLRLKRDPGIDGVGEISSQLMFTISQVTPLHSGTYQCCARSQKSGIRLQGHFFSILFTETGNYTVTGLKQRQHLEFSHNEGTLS

B1: D12 in the IgG1 format (antibody)
heavy: not shown
light: EIVLTQSPATLSLSPGERATLSCRASQSISNHLHWYQQKPGQAPRLLIKYASQSISGIPARFSGSGSGTDFTLTISSLEPEDFAVYFCQQSNSWPLTFGGGTKVEIKRTVAAPSVFIFPPSDEQLKSGTASVVCLLNNFYPREAKVQWKVDNALQSGNSQESVTEQDSKDSTYSLSSTLTLSKADYEKHKVYACEVTHQGLSSPVTKSFNRGEC
notes: also called ELB02102
B2: A09 in the IgG1 E345K format (antibody)
heavy: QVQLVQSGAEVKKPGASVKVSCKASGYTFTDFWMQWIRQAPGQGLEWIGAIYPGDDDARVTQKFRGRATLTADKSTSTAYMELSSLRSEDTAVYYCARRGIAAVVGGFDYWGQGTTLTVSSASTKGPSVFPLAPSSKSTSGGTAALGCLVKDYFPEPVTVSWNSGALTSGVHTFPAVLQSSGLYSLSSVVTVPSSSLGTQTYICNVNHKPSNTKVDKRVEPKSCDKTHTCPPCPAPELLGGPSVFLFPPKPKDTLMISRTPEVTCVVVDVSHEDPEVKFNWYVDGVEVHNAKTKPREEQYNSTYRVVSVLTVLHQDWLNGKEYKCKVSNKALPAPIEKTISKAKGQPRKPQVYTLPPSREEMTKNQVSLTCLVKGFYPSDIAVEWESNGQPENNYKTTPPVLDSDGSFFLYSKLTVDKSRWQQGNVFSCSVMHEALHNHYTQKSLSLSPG
light: B1 light
notes: also called ELB02114
B3: A09 in the IgG1 format (antibody)
heavy: not shown
light: B1 light
notes: also called ELB02104; H7 A09 variant in IgG1 format
B4: D12 in the IgG1 E345K format (antibody)
heavy: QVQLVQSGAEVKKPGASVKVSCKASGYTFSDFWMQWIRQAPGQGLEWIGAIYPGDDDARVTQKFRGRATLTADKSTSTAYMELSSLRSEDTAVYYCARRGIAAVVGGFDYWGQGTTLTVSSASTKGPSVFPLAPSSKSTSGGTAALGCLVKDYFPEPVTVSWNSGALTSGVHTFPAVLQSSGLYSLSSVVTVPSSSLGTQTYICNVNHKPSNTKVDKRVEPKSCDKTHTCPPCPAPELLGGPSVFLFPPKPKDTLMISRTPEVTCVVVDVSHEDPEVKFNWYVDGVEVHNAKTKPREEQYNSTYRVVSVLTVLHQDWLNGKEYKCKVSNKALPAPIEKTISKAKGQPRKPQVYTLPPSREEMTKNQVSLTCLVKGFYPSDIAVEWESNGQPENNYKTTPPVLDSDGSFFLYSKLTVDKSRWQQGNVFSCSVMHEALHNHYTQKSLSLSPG
light: B1 light
notes: also called ELB02112
B5: H7 D12 in the Fab linker Fab format (other)
heavy: QVQLVQSGAEVKKPGASVKVSCKASGYTFSDFWMQWIRQAPGQGLEWIGAIYPGDDDARVTQKFRGRATLTADKSTSTAYMELSSLRSEDTAVYYCARRGIAAVVGGFDYWGQGTTLTVSSASTKGPSVFPLAPSSKSTSGGTAALGCLVKDYFPEPVTVSWNSGALTSGVHTFPAVLQSSGLYSLSSVVTVPSSSLGTQTYICNVNHKPSNTKVDKRVEPKSCDKGGGGSGGGGSGGGGSQVQLVQSGAEVKKPGASVKVSCKASGYTFSDFWMQWIRQAPGQGLEWIGAIYPGDDDARVTQKFRGRATLTADKSTSTAYMELSSLRSEDTAVYYCARRGIAAVVGGFDYWGQGTTLTVSSASTKGPSVFPLAPSSKSTSGGTAALGCLVKDYFPEPVTVSWNSGALTSGVHTFPAVLQSSGLYSLSSVVTVPSSSLGTQTYICNVNHKPSNTKVDKRVEPKSCDK
light: B1 light
notes: two light chains follow from the format; also called ELB01132; D12 Fab linker Fab

Tests used:
[1] = target: T1, recombinant human CD160 protein, …; test: BLI
[2] = target: T2, human CD160 (CD160 GPI isoform) on cells; test: cell-based or functional assay
[3] = target: T1, recombinant human CD160 protein, …; test: BLI (repeats Table 9)
[4] = target: T2, human CD160 (CD160 GPI isoform) on cells; test: flow cytometry on CHO-hCD160 transfectants
Method: The binding capacity of the anti-CD160 H7 antibodies and of the variants (D12 and A09) thereof in the IgG4 and IgG1 format and in the IgG1 E345K format was evaluated during the labelling of surface CD160 expressed in a recombinant line CHO-S-hCD160 (clone 2G10) in comparison with non-transfected CHO-S cells, by measuring the median fluorescence index (MFI) (see FIG. 1). For this, 5×10⁺⁵ 2G10 (CHO-S-CD160) and non-transfected CHO-S cells were labelled with 2 μg of each of these antibodies and also with the appropriate control isotypes. In FIG. 1, all the anti-CD160 tested (regardless of the isotype or the IgG format or the variant) specifically recognize human CD160 expressed recombinantly by the CHO-S cells.
In FIG. 1B, the IgG4 variants bind more efficiently to the CHO-hCD160 transfectants than H7 (which results in a median fluorescence increased by a factor of 2 compared with H7 IgG4 ELB01101 or with H7 IgG4 H310A-H435Q ELB01102), this being even in the presence of the H310A-H435Q mutations.

[5] = target: T1, recombinant human CD160 protein, …; test: SPR (Biacore), design close to Example 2
[6] = target: T1, recombinant human CD160 protein, …; test: BLI, biotinylated CD160 at 10 nM on streptavidin sensor, antibody 3.13-100 nM
[7] = target: T1, recombinant human CD160 protein, …; test: as above; remark: listed apart in the source
Method: All the experiments were carried out at 30° C. in the running buffer recommended by Fortebio (PBS with 0.1% (p/v) of bovine serum albumin (BSA) and 0.02% (v/v) Tween-20). This buffer was also used for diluting the various ligands and analytes. The samples deposited in a 96-well microplate (cat #738-0026, Dutscher) were shaken at 1000 revolutions per minute.
The dissociation constants and the association (kₒₙ) and dissociation (kdis) rate constants for each antibody were calculated by applying a 1:1 interaction model, with overall mathematical modelling of curves (fit) (Rmax bound by the sensor) on the ForteBio 9.0 data analysis software.

[8] = target: T2, human CD160 (CD160 GPI isoform) on cells; test: flow cytometry, percentage of labelled YT2C2 NK cells (2x10^5 cells), antibody 0.39 to 50 nM [panel C]
Method: The binding capacity of the anti-CD160 H7 antibody and of the H7 D12 variant in the IgG4, Fab and Fab-linker Fab format was evaluated during the labelling of surface CD160 expressed naturally on a clone of NK cell line (YT2C2), by measuring the percentage of cell labelled=percentage of binding (see FIG. 1C). For this, 2×10⁺⁵ YT2C2 cells were labelled with increasing concentration of antibodies (from 50 nM to 0.39 nM) and also with the appropriate control isotype. […] In FIG. 1C, IgG4 variants ELB01103 and ELB01104 bind more efficiently to the YT2C2 cells than the H7 IgG4 ELB01101 (which results in a EC₅₀ increased by a factor of 10 compared with H7 IgG4). This is also true for the Fab-linker-Fab format ELB01132. By contrast Fab format ELB01122 bind less efficiently to the YT2C2 cells than the H7 IgG4 ELB01101 (which results in a EC₅₀ decreased by a factor of 2 compared with H7 IgG4). This is certainly due to the monovalency of the Fab format.

Binder	Gain in KD/respective IgG [1]	EC50 of NK cell activation (IFN-γ, CD69), improvement against ELB02101 [2]	Kd [3]	koff [3]	kon [3]	median fluorescence, factor against H7 IgG1 [4]	Gain in KD/respective IgG [5]	Kd [5]	koff [5]	kon [5]	Kd [6]	koff [6]	kon [6]	EC50 of IFN-gamma production by NK cells, additional improvement against the IgG1 variants [2]	EC50 of IFN-gamma production by NK cells, improvement against ELB02101 [2]	Kd [7]	koff [7]	kon [7]	EC50 (read off the curve) [8]
B1	1.9 fold	2 to 3 logs	1.55 nM	0.000654 s⁻¹	422000 M⁻¹ s⁻¹	3 fold	2.7 fold	4.5 nM	0.00113 s⁻¹	251000 M⁻¹ s⁻¹	1.55 nM	0.000654 s⁻¹	422000 M⁻¹ s⁻¹						
B2						3 fold								2 logs	4 logs	1.93 nM	0.000825 s⁻¹	427000 M⁻¹ s⁻¹	
B3	2 fold	2 to 3 logs	1.47 nM	0.000651 s⁻¹	442000 M⁻¹ s⁻¹	3 fold	3 fold	3.9 nM	0.000877 s⁻¹	223000 M⁻¹ s⁻¹	1.47 nM	0.000651 s⁻¹	442000 M⁻¹ s⁻¹						
B4						3 fold								2 logs	4 logs	1.52 nM	0.000679 s⁻¹	447000 M⁻¹ s⁻¹	
B5																			~2 nM
